One data set deals with T1, gB/VP22trunc binding (Human herpesvirus 1, UniProt P10211).
T1 construct: linked residues 798 to 904 of gB to the glutathione-S-transferase (GST) protein expressed by pGex2TNMCR; made in house; host or cells: GST-gB: E. coli DH5alpha; VP22trunc: E. coli BL21(DE3)
As to the kind of experiment: Far Western analysis of peptide inhibition of GST-gB binding to VP22trunc. Also on record: species or system HSV-1. To be noted: peptide 250 μg/ml co-incubated with GST-gB 1.2 μg/ml; FIG. 12B. Here is the method:
(B) Inhibition of binding of GST-gB (final concentration 1.2 μg/ml)and each of the following peptides at a final concentration of 250 μg/ml: lane 1, no peptide; lane 2, peptide A; lane 3, peptide B; lane 4, peptide C; lane 5, peptide D; lane 6, peptide E; lane 7, peptide F; lane 8, peptide G; lane 9, peptide H; lane 10, peptide I; lane 11, peptide J. Bound GST-gB was detected with anti-GST antibody.
Following electrophoresis, proteins were electrotransferred to either Hybond or ProBlott (Applied Biosystems) membrane and the membrane was incubated in renaturation buffer (50 mM Tris-HCl, pH 8.0, 150 mM NaCl, 10% glycerol, 1 mM DTT) at 4° C. for 5-6 hours.
For membranes probed with GST-gB, blocking was performed overnight in PBSA containing 1% non-fat dried milk and 0.05% Tween 20 at 4° C. Membranes were then washed twice in renaturation buffer (10 min/wash) prior to incubation with fusion protein (final concentration 0.5 μg/ml) in renaturation buffer containing 1% BSA. Incubation was again performed overnight at 4° C. Following washing with renaturation buffer (four times, 10 minutes/wash) and a brief rinse with blocking buffer, the membrane was incubated with anti-GST antibody in PBSA, 1% non-fat dried milk, 0.05% Tween 20 and 1% BSA for 1 hour at ambient temperature. After four washes with PBSA, 0.05% Tween 20 (10 minutes/wash), bound antibody was detected with secondary antibody (goat anti-rabbit IgG, whole molecule; Sigma) conjugated to Horse Radish Peroxidase (HRP) by incubating at room temperature for 45 minutes. Following four further washes with PBSA, 0.05% Tween 20, the secondary antibody was visualised by enhanced chemiluminescence.
Similar to the studies performed with inhibition of binding of VP16 to VP22, peptides A to J, which span residues 18 to 144 of VP22trunc, were used to examine whether gB binding could also be prevented (FIG. 12B).

Data set [1] in a line: Solubility of synthetic peptides in buffer. The data set is classed as physicochemical. To be noted: peptides dissolved in 20 mM Tris-HCl, pH 8.0, 250 mM NaCl; unpurified preparations. Here is the method:
Synthesis and Purification of Oligopeptides. Peptides were synthesised by continuous flow Fmoc chemistry (Atherton and Sheppard, 1989; McLean et al., 1991) and, where stated in the text, were purified by preparative reverse-phase HPLC (Owsianka et al., 1993). The Mr values of peptides were determined by fast atom bombardment mass spectrometry (M-Scan) and corresponded to the predicted values. Peptides were dissolved in 20 mM Tris-HCl, pH 8.0, 250 mM NaCl and centrifuged at 11,500 g for 1 minute prior to use. […] Precipitates were removed by centrifugation before use.

In data set [2] the target is T2, VP16/VP22trunc interaction (Human herpesvirus 1, UniProt P06492).
T2 construct: Plasmid pETVP16 was used to express full-length VP16 under the control of the T7 RNA polymerase promoter; made in house; host or cells: E. coli BL21(DE3)
As to the kind of experiment: Co-purification of VP16 with VP22trunc on Ni-NTA resin in presence of peptides. It counts as binding, HSV-1. To be noted: crude peptide at 2 mg/ml (about 1 mM), equal volume mixed with partially purified VP16 extract before VP22trunc. Here is the method: FIG. 4 Co-elution of VP16 with VP22trunc from Ni-NTA resin. Partially purified extract containing VP16 was incubated in the absence of (lane 14) or presence of […] of VP22trunc (lanes 3 to 13). In lanes 3 to 12, an equal volume of the individual peptides at 2 mg/ml was added to the extract prior to VP22trunc. Peptides added to each reaction were as follows: lane 3, peptide A; lane 4, peptide B; lane 5, peptide C; lane 6, peptide D; lane 7, peptide E; lane 8, peptide F; lane 9, peptide G; lane 10, peptide H; lane 11, peptide I; lane 12, peptide J; lane 13, no peptide. Lanes 3 to 14 show the polypeptides eluted from Ni-NTA resin. Other samples were as follows: lane 1, partially purified VP16 extract, lane 2, purified VP16; lane 15, purified VP22trunc. Samples were electrophoresed on a 12% polyacrylamide gel and the apparent molecular weights of VP16 (65 KDa) and VP22trunc (16 KDa) are shown.
Co-purification of VP16 with VP22trunc on Ni-NTA Resin. Purified VP22trunc and a partially purified extract containing VP16, both in 20 mM Tris-HCl, pH8.0, 250 mM NaCl, were mixed at 4° C. for 15 to 30 minutes on a rotator. 50 μl of equilibrated Ni-NTA resin was added to each mixture and incubation was continued at 40C for a further 15 to 30 minutes. Resin was pelleted at 800 g for 1 minute and the supernatant (non-bound fraction) was removed. Resin was washed sequentially with 0.5 ml of 20 mM Tris-HCl, pH 8.0, 250 mM NaCl, 5 mM imidazole (twice) and 0.5 ml of 20 mM Tris-HCl, pH 8.0, 250 mM NaCl, 60 mM imidazole (four times). Bound protein was eluted by addition of 50 μl of boiling mix (160 mM Tris-HCl, pH 6.7, 2% SDS, 700 mM β-mercaptoethanol, 10% glycerol, 0.002% bromophenol blue) followed by heating to 100° C. for 5 minutes. For peptide studies, peptides were dissolved in 20 mM Tris-HCl, pH8.0, 250 mM NaCl at a concentration of 2 mg/ml. Incubation of peptides with partially purified VP16 extracts was performed at ambient temperature for 2 hours prior to the addition of VP22trunc. Samples were electrophoresed on denaturing polyacrylamide gels.
Results presented in Section 2(i) had shown that VP16 co-elutes from Ni-NTA resin in the presence of VP22trunc and it was concluded that this indicated interaction between these polypeptides. The ability of synthetic peptides to inhibit this interaction was analysed by mixing them individually with the partially purified VP16 extract prior to addition of VP22trunc. From the intensity of the 65 KDa species in the crude extract (FIG. 4, lane 2), it was estimated that the concentration of VP16 was approximately […]. To ensure that experiments were performed in an excess of peptide, peptides were prepared at a concentration of 2 mg/ml (about 1 mM) and equal volumes of peptide and extract were mixed. This gave a relative molar ratio of VP16 to peptide of 1:300. However, it should be noted that certain peptides were not completely soluble (Table 1) and in those cases, the ratio would be reduced.

The next data set has as its target T3, VP16 (Human herpesvirus 1, UniProt P06492).
T3 construct: Plasmid pETVP16 was used to express full-length VP16 under the control of the T7 RNA polymerase promoter; made in house; host or cells: E. coli BL21(DE3)
As to the kind of experiment: ELISA of direct binding of VP16 to plate-coated peptides. Set-up: species or system HSV-1. To be noted: wells coated with peptide up to 500 μg/ml; VP16 1.6 μg/ml; FIG. 10. As to the method:
FIG. 10 Binding of VP16 to peptides. Microtitre plates were coated with 5-fold dilutions of peptides ranging from 500 μg/ml to 1 μg/ml and blocked with PBS/10% NCS. VP16 was then added to a final concentration of 1.6 μg/ml and detected with LP1. The legend for the peptides added is shown to the right of the graph.
Dilutions of proteins in PBS were coated overnight onto flat bottomed micro-titre plates (Dynatech) at 37° C. and then blocked with either 2% BSA or 10% new-born calf serum (NCS) in PBS for 1 hour at 37° C. Specific binding of a second protein to the plate-bound protein was performed for 1.5-2 hours at ambient temperature. a Excess secondary protein was removed by washing four times with PBS, 0.3% Tween 20. Bound protein was detected by incubation for 1.5-2 hours with LP1 antibody in PBS, 1% gelatin or PBS, 2% NCS. The bound antibody was detected by incubation for 1 hour at ambient temperature with anti-mouse antibody conjugated to HRP (1:500) and visualised with Smg/ml enzyme substrate 2,2'-azino-bis(3-ethylbenzthiazoline-6-sulphonic acid) (ABTS; Sigma) in citrate-phosphate buffer containing 6 μl hydrogen peroxide in a total volume of 20 ml. Optical densities were measured on a Titertek Multiscan PLUS instrument.
To examine whether VP16 could bind directly to the peptides, wells were coated with each peptide (A-J) at a range of concentrations from […] to 500 μg/ml and the plate was then blocked with […]. […] Nonetheless, the data for peptides D and E implicate direct binding of these peptides to VP16 as the mechanism for inhibiting its interaction with VP22. Peptide H also was active in experiments which prevented gB binding to VP22trunc [Section 4 (iii)] and thus also forms an aspect of the invention.
Background: In an ELISA, binding on a coated surface is turned into a signal by an enzyme label.

T3 sequence (P06492 whole entry): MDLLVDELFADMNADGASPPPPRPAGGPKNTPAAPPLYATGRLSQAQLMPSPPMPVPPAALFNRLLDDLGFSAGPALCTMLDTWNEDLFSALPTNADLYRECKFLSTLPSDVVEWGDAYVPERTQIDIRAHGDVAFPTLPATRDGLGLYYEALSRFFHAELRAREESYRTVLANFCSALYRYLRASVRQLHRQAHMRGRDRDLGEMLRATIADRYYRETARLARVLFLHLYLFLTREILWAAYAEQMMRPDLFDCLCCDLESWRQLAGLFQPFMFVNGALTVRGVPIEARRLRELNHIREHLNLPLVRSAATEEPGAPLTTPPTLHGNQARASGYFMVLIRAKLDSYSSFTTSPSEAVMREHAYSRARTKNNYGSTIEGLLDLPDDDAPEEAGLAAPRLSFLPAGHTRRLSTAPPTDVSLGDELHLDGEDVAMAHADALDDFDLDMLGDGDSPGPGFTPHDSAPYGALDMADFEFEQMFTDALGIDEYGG
T2 sequence (P06492 whole entry): as above
T1 sequence (P10211 798-904): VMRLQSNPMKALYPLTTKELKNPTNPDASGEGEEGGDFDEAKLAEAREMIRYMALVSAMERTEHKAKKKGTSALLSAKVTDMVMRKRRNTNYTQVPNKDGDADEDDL

With ITTIRVTVCEGKNLLQRANE [Peptide H], in the data set with gB/VP22trunc binding, the “Inhibition of GST-gB binding to VP22trunc (Far Western)” value was “completely inhibited binding of gB”. Also, the Solubility result in data set [1] is listed as “soluble”. Further, in data set [2], the “Co-elution of VP16 with VP22trunc from Ni-NTA resin after incubation with peptide” value is “does not prevent interaction with VP22”. Further, in the data set with VP16, the “Direct binding of VP16 to plate-coated peptide (ELISA)” value was “evidence also for VP16 binding”.
